B1: FI6 variant 2 (antibody, V domains shown)
VH: QVQLVQSGGGVVQPGRSLRLSCVASGFTFSTYAMHWVRQAPGRGLEWVAVISYDGNYKYYADSVKGRFSISRDNSNNTLHLEMNTLRTEDTALYYCAKDSQLRSLLYFEWLSQGYFDPWGQGTLVTVTS
VL: DIQMTQSPDSLAVSLGARATINCKSSQSVTFNYKNYLAWYQQKPGQPPKVLIYWASARESGVPDRFSGSGSGTDFTLTISSLQAEDVAVYYCQQHYRTPPTFGQGTKVEIK
B2: FI28 variant 1 (antibody, V domains shown)
VH: EVQLVESGGGAVQPGESLKLSCAASGFTFSNYGMHWVRQAPGKGLEWVAVISYDGSNKYYADSVKGRFTISRDNSKDTLYLQMNSLRAEDTALFYCAKERPLRLLRYFDWLSGGANDYWGQGTLVTVSS
VL: DIVMTQSPDSLAVSLGERATINCKSSQSVLYSSNNKNYLAWYQQKPGQPPKLLIDWASTRESGVPDRFSGSGSGTDFTLTISNLQVEDVAVYYCQQYYRSPSFGQGTKLEIK

How the values were obtained:
[1] = molecular target: H7N7 A/Netherlands/219/03 HA protein (influenza A virus H7N7 A/Netherlands/219/03); experiment: ELISA on HA
[2] = molecular target: H7N7 A/Netherlands/219/03 HA protein (influenza A virus H7N7 A/Netherlands/219/03); experiment: ELISA on coated HA

| Binder | Binding to HA by ELISA (% of subtype specific control antibodies) [1] | EC50 [2] |
| --- | --- | --- |
| B1 | 87.9% | 0.026 µg/mL |
| B2 | -0.5% | – |
